Test results as given in patent US20030021765A1 (Biogen, published 2003).
Numbering of substitutions follows the chain as printed. Blank lines part the entries; values can stand above or below the binder they belong to.

What was measured:
[1] = target: T1, IFNAR2/Ig fusion protein (IFNAR2 extracellular domain fused to the hinge, CH2 and CH3 domains of human IgG1) (human, UniProt P48551 27-243); assay: ELISA on captured IFNAR2-Fc; reference, value not given
T1 construct: extracellular domain; also called IFNAR2/Fc; IFNAR2-Fc; not shown: human IgG1 constant region: hinge, CH2 and CH3 domains
T1 sequence (looked up): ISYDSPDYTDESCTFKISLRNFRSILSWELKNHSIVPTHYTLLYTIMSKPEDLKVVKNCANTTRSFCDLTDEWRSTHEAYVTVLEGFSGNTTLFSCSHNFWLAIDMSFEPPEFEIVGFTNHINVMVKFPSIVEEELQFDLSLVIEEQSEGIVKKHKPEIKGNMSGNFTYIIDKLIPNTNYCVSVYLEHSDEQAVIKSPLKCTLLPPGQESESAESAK
Description: The receptor binding properties of the Interferon-beta mutants described in C were assessed using two different binding assays. One assay measured binding of the interferon-beta mutants to a fusion protein, IFNAR2/Ig, comprising the extracellular domain of the human IFNAR2 receptor chain fused to part of the constant region of a human IgG. IFNAR2-Fc was expressed in chinese hamster ovary (CHO) cells and purified by protein A sepharose affinity chromatography according to the instructions of the manufacturer (Pierce Chem. Co., Rockford, Ill., catalog #20334). The binding of interferon-beta mutants to IFNAR2-Fc was measured in an ELISA format assay. […] Binding of the interferon-beta mutants to IFNAR2-Fc was measured by adding 50 μl/well mutant interferon-beta in conditioned media, serially diluted in Dulbecco's Modified Eagle's Medium (DMEM) supplemented with 10% fetal bovine serum, and incubating for 2 hours at 4° C. […] After washing, interferon-beta bound to the plates was detected by adding 50 μl/well of a cocktail consisting of a 1:1000 dilution of a rabbit polyclonal anti-interferon antibody (#447) plus horseradish peroxidase (HRP)-labelled donkey anti-rabbit IgG (Jackson ImmunoResearch), and incubating for 15 minutes at 4° C. After two washes, HRP substrate was added, and the plate was incubated at 4° C. before being read on an ELISA plate reader at an absorbance of 450 nm. […]

[2] = target: T1, IFNAR2/Ig fusion protein (IFNAR2 …); assay: ELISA on captured IFNAR2-Fc
Description: (§1) The receptor binding properties of the Interferon-beta mutants described in C were assessed using two different binding assays. One assay measured binding of the interferon-beta mutants to a fusion protein, IFNAR2/Ig, comprising the extracellular domain of the human IFNAR2 receptor chain fused to part of the constant region of a human IgG. IFNAR2-Fc was expressed in chinese hamster ovary (CHO) cells and purified by protein A sepharose affinity chromatography according to the instructions of the manufacturer (Pierce Chem. Co., Rockford, Ill., catalog #20334). The binding of interferon-beta mutants to IFNAR2-Fc was measured in an ELISA format assay. ELISA plates were prepared by coating flat-bottomed 96 well plates overnight at 4° C. with 50 μl/well of mouse anti-human IgG1 monoclonal antibody (CDG5-AA9, Biogen, Inc.) at 10 μg/ml in coating buffer (50 mM NaHCO₃, 0.2 mM MgCl₂, 0.2 mM CaCl₂, pH 9.6). Plates were washed twice with PBS containing 0.05% Tween-20, and blocked with 0.5% non-fat dry milk in PBS for 1 hour at room temperature. After two more washes, 50 μl of 1 μg/ml IFNAR2-Fc in 0.5% milk in PBS containing 0.05% Tween-20 was added to each well and incubated for 1 hour at room temperature, and the plates were then washed twice more. Binding of the interferon-beta mutants to IFNAR2-Fc was measured by adding 50 μl/well mutant interferon-beta in conditioned media, serially diluted in Dulbecco's Modified Eagle's Medium (DMEM) supplemented with 10% fetal bovine serum, and incubating for 2 hours at 4° C. Dilutions of interferon-beta mutant typically ranged from approximately 1 μM down to 10 pM. After washing, interferon-beta bound to the plates was detected by adding 50 μl/well of a cocktail consisting of a 1:1000 dilution of a rabbit polyclonal anti-interferon antibody (#447) plus horseradish peroxidase (HRP)-labelled donkey anti-rabbit IgG (Jackson ImmunoResearch), and incubating for 15 minutes at 4° C. After two washes, HRP substrate was added, and the plate was incubated at 4° C. before being read on an ELISA plate reader at an absorbance of 450 nm. Data were plotted as absorbance versus the concentration of mutant interferon-beta, and the affinity for the binding of the mutant interferon-beta to IFNAR2-Fc was determined by fitting the data to a simple hyperbolic binding equation.

[3] = target: T1, IFNAR2/Ig fusion protein (IFNAR2 …); assay: ELISA; IFNAR2-Fc captured on anti-human IgG1 plate; mutant in conditioned medium
Description: as §1

B1: his tagged-wild-type interferon-beta-1a (ligand)
chain: SGGHHHHHHSSGDDDDKMSYNLLGFLQRSSNFQCQKLLWQLNGRLEYCLKDRMNFDIPEEIKQLQQFQKEDAALTIYEMLQNIFAIFRQDSSSTGWNETIVENLLANVYHQINHLKTVLEEKLEKEDFTRGKLMSSLHLKRYYGRILHYLKAKEYSHCAWTIVRVEILRNFYFINRLTGYLRN
notes: Expressed in human EBNA 293 cells and tested as conditioned medium; also called wild type his-IFN-beta; w.t. his-IFN-beta
- binding result [1]: binds

B4: his tagged-interferon-beta alanine substitution mutant A2 (ligand)
chain: B1 chain with F32A, Q33A, Q35A, K36A, W39A, Q40A
notes: Tested as EBNA 293 conditioned medium; also called A2 helix mutant
- EC50 relative to w.t. his-IFN-beta EC50 [2]: > 500 fold of w.t. his-IFN-beta EC50
- binding result [3]: no binding

The remaining lines, values ahead:

- EC50 relative to w.t. his-IFN-beta EC50 [2]: > 500 fold of w.t. his-IFN-beta EC50
- binding result [3]: no binding
B2: his tagged-interferon-beta alanine substitution mutant AB1 (ligand)
chain: B1 chain with L45A, E46A, Y47A, L49A, K50A
notes: Tested as EBNA 293 conditioned medium

- EC50 relative to w.t. his-IFN-beta EC50 [2]: > 500 fold of w.t. his-IFN-beta EC50
- binding result [3]: no binding
B3: his tagged-interferon-beta alanine substitution mutant AB2 (ligand)
chain: B1 chain with M53A, N54A, D56A, E59A
notes: as for B2

- EC50 relative to w.t. his-IFN-beta EC50 [2]: > 500 fold of w.t. his-IFN-beta EC50
- binding result [3]: no binding
B5: his tagged-interferon-beta alanine substitution mutant E (ligand)
chain: B1 chain with V165A, R169A, Y172A, N175A
notes: also called E helix mutant
